Target: ACE2-Fc, recombinant protein (Sino Biological 10108-H02H) (human, UniProt Q9BYF1)
Test: BLI

B1: BTN3A2-L-His, recombinant protein (Sino Biological 13515-H08H) (natural protein)
chain: not shown
- Kd: 92.7 ± 0.359 nM

Source: PMC11367481 (eBioMedicine, 2024)
